Results reported in the supplement of paper PMC7877785.
± gives the uncertainty stated by the source.

Assay: self-splicing fitness, log relative to wild type (ln ratio); higher = more splicing; Tetrahymena group I intron in knt gene, E. coli kanamycin selection, DiMSum; sequences stand for … in CUCUCU…GGAGGGAAAAGUUAUCAGGCAUGCACCUGGUAGCUAGUCUUUAAACCAAUAGAUUGCAUCGGUUUAAAAGGCAAGACCGUCAAAUUGCGGGAAAGGGGUCAACAGCCGUUCAGUACCAAGUCUCAGGGGAAACUUUGAGAUGGCCUUGCAAAGGGUAUGGUAAUAAGCUGACGGACAUGGUCCUAACCACGCAGCCAAGUCCUAAGUCAACAGAUCUUCUGUUGAUAUGGAUGCAGUUCACAGACUAAAUGUCGGUCGGGGAAGAUGUAUUCUUCUCAUAAGAUAUAGUCGGACCUCUCCUUAAUGGGAGCUAGCGGAUGAAGUGAUGCAACACUGGAGCCGCUGGGAACUAAUUUGUAUGCGAAAGUAUAUUGAUUAGUUUUGGAGUACUCGUGGUCG
Method in brief: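 Six replicate transformations of E. coli BL21(DE3) with a pET-22b(+) library were grown overnight at 37°C or 30°C. The library randomised all eight P1ex-region intron nucleotides, the intron lying in the knt kanamycin-resistance gene, and plates were LB agar with or without 25 μg/mL kanamycin plus 100 μg/mL carbenicillin, 50 μM IPTG and 0.2% rhamnose. Pooled colonies were amplicon-sequenced on an Illumina HiSeq 2500, and fitness is the DiMSum error-weighted combination of wild-type-normalised replicate fold changes, kanamycin versus none.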

| Sequence | self-splicing fitness (ln) (30 °C) | self-splicing fitness (ln) (37 °C) |
| --- | --- | --- |
| UCUCAGCAAUAUUACGCAGC | -3.54 ± 0.24 | -2.32 ± 0.21 |
| UCUCAGCAAUAUUACGCCGG | -2.33 ± 0.21 | – |
| UCUCAGCAAUAUUACGCCUG | – | -2.27 ± 0.47 |
| UCUCAGCAAUAUUACGCUAA | -3.89 ± 0.33 | -2.23 ± 0.25 |
| UCUCAGCAAUAUUACGCUGU | -2.3 ± 0.21 | -1.17 ± 0.31 |
| UCUCAGCAAUAUUACGGAGA | -3.23 ± 0.41 | -3.43 ± 0.39 |
| UCUCAGCAAUAUUACGGCCA | -2.65 ± 0.19 | -1.69 ± 0.21 |
| UCUCAGCAAUAUUACGGGAC | -2.31 ± 0.24 | -2.87 ± 0.38 |
| UCUCAGCAAUAUUACGGUAG | -2.3 ± 0.098 | -1.99 ± 0.15 |
| UCUCAGCAAUAUUACGGUCC | -3 ± 0.31 | – |
| UCUCAGCAAUAUUACGUAGC | -1.31 ± 0.17 | -1.16 ± 0.23 |
| UCUCAGCAAUAUUACGUCGA | -2.07 ± 0.11 | -0.925 ± 0.12 |
| UCUCAGCAAUAUUACGUGAG | -1.2 ± 0.054 | -0.483 ± 0.072 |
| UCUCAGCAAUAUUACGUUUA | -2.98 ± 0.18 | -1.08 ± 0.13 |
| UCUGAGCAAUAUUACGAAUA | – | -1.82 ± 0.48 |
| UCUGAGCAAUAUUACGACAG | -1.02 ± 0.12 | -1.04 ± 0.15 |
| UCUGAGCAAUAUUACGACCU | – | -2.62 ± 0.31 |
| UCUGAGCAAUAUUACGACUA | -2.49 ± 0.19 | -1.64 ± 0.17 |
| UCUGAGCAAUAUUACGACUU | -3.11 ± 0.33 | – |
| UCUGAGCAAUAUUACGAGCG | -1.93 ± 0.15 | -2.37 ± 0.39 |
| UCUGAGCAAUAUUACGAGGU | -3.18 ± 0.23 | – |
| UCUGAGCAAUAUUACGAUGC | – | -0.729 ± 0.36 |
| UCUGAGCAAUAUUACGCAUU | -3.77 ± 0.37 | -2.15 ± 0.31 |
| UCUGAGCAAUAUUACGCCAG | – | -0.871 ± 0.46 |

| Sequence | self-splicing fitness (ln) (30 °C) | self-splicing fitness (ln) (37 °C) |
| --- | --- | --- |
| UCUGAGCAAUAUUACGCCUU | -3.06 ± 0.12 | -1.54 ± 0.14 |
| UCUGAGCAAUAUUACGCGUU | -4.91 ± 0.45 | -2.63 ± 0.28 |
| UCUGAGCAAUAUUACGCUAA | -3.49 ± 0.34 | – |
| UCUGAGCAAUAUUACGGAAA | -3.08 ± 0.18 | -1.64 ± 0.15 |
| UCUGAGCAAUAUUACGGGCU | – | -3.79 ± 0.42 |
| UCUGAGCAAUAUUACGUACC | -3.19 ± 0.41 | -1.96 ± 0.31 |
| UCUGAGCAAUAUUACGUCAU | -3.81 ± 0.35 | -2.76 ± 0.2 |
| UCUGAGCAAUAUUACGUCGC | -4.03 ± 0.37 | -2.54 ± 0.36 |
| UCUGAGCAAUAUUACGUCUA | -1.67 ± 0.18 | -2.17 ± 0.26 |
| UCUGAGCAAUAUUACGUGAG | -1.86 ± 0.11 | -0.646 ± 0.097 |
| UCUGAGCAAUAUUACGUGUC | -4.14 ± 0.32 | – |
| UCUGAGCAAUAUUACGUUAA | -3.47 ± 0.29 | -0.512 ± 0.15 |
| UCUGAGCAAUAUUACGUUGU | -4.12 ± 0.21 | -1.96 ± 0.18 |
| UCUUAGCAAUAUUACGACAA | -2.45 ± 0.32 | -1.18 ± 0.29 |
| UCUUAGCAAUAUUACGACCG | -1.95 ± 0.36 | -0.528 ± 0.34 |
| UCUUAGCAAUAUUACGACUA | – | -2.26 ± 0.45 |
| UCUUAGCAAUAUUACGAGCG | -1.36 ± 0.13 | -0.498 ± 0.15 |
| UCUUAGCAAUAUUACGAGGG | -1.87 ± 0.16 | -2.1 ± 0.25 |
| UCUUAGCAAUAUUACGAUAA | -2.73 ± 0.46 | -2.27 ± 0.4 |
| UCUUAGCAAUAUUACGAUCC | -1.98 ± 0.38 | – |
| UCUUAGCAAUAUUACGCAGA | -1.55 ± 0.46 | -1.36 ± 0.29 |
| UCUUAGCAAUAUUACGCCAG | -2.74 ± 0.27 | – |
| UCUUAGCAAUAUUACGCCUU | – | -1.86 ± 0.3 |
